From paper PMC9317961, “Deafness-related protein PDZD7 forms complex with the C-terminal tail of FCHSD2” (Biochemical Journal, 2022)

B1: FCHSD2 tail (a.a. 729-740) (peptide, UniProt Q3USJ8 729-740, looked up)
chain: TEKMEDVEITLV
notes: As used in ITC; also called WT FCHSD2 tail; source: E. coli BL21 (DE3), purified (nickel-NTA, SEC)
B2: Trx-tagged FCHSD2 tail (peptide, UniProt Q3USJ8 729-740, looked up)
chain: TEKMEDVEITLV
notes: FCHSD2, residues 729-740; As used in SEC-MALS, thioredoxin tag kept; monomer by SEC-MALS; also called Trx-FCHSD2 tail; source: E. coli BL21 (DE3), purified (nickel-NTA, SEC)

Tests used:
[1] = target: T1, PDZD7 PDZ3 (a.a. 842-946) (mouse, UniProt E9Q9W7 842-946); test: ITC; MicroCal iTC200, 25°C; ~500 μM protein in the syringe titrated into ~50 μM partner in the cell; one-site binding model; settings: both partners purified
T1 construct: As used in ITC; also called WT PDZD7 PDZ3; source: E. coli BL21 (DE3), purified (nickel-NTA, SEC); not shown: Trx (from the vector pET.32M.3C)
T1 sequence (looked up): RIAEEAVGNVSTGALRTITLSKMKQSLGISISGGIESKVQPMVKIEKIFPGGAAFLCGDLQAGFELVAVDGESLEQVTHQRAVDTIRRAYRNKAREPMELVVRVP

Trx-tagged PDZD7 PDZ3 = target: T2, Trx-tagged PDZD7 PDZ3 (mouse, UniProt E9Q9W7 842-946); test: SEC-MALS; Superose 12 10/300 GL column, miniDAWN and Optilab detectors; ~300 μl of 50 μM protein loaded; Trx-tagged proteins alone and mixed; settings: both partners purified
T2 construct: As used in SEC-MALS, thioredoxin tag kept; monomer by SEC-MALS; also called Trx-PDZD7 PDZ3; source: E. coli BL21 (DE3), purified (nickel-NTA, SEC)
T2 sequence (looked up): T1 sequence (looked up)

| Kd [1] [µM] | stoichiometry N (Trx-tagged PDZD7 PDZ3) | Binder |
| --- | --- | --- |
| ~1.51 | – | B1 |
| – | 1 | B2 |
